Measured values from PMC3173040 (Nature structural & molecular biology, 2011).

Molecular target: the molecule itself
Assay: SEC-MALS

B1: VopL fragment 130-484 (3W-VCD) (domain or fragment, Vibrio parahaemolyticus, UniProt Q87GE5 130-484, looked up)
chain: SVNEDHSKLMEQIRQGVKLKSATKSLSADKSSADAHSKLMEELLTGGRKLKKVATSDIPAPPPLPSASTSKSPDSRNALLSEIAGFSKDRLRKTGSLETLNSSQSKDKESFEPTTHERLLSEDLFKQSPKLSEQELDELANNLADYLFQAADIDWHQVISEKTRGLTTEEMAKSEHRYVQAFCREILKYPDCYKSADVASPESPKSGGGSVIDVALKRLQTGRERLFTTTDEKGNRELKKGDAILESAINAARMAISTEEKNTILSNNVKSATFEVFCELPCMDGFAEQNGKTAFYALRAGFYSAFKNTDTAKQDITKFMKDNLQAGFSGYSYQGLTNRVAQLEAQLAALSAKLS
  stoichiometry N: 2
